Consider one variant from IntAct's records for PubMed 10393177.

B1: Stress-activated protein kinase jnk-1 (Caenorhabditis elegans), Q8WQG9 (parent)
chain: MEERLSTTSSYPSHPGRSVEEDHNTLLASSSISSIIRGTRGHLNNFIESVGNWLVPSSSGRDDDAVSLDSCQSVYSPVRHHINSGTGGGILMEPSSIHVPENYYSVTIGEAQMVVLKRYQNLRLIGSGAQGIVCSAFDTVRNEQVAIKKLSRPFQNVTHAKRAYRELKLMSLVNHKNIIGILNCFTPQKKLDEFNDLYIVMELMDANLCQVIQMDLDHERLSYLLYQMLCGIRHLHSAGIIHRDLKPSNIVVRSDCTLKILDFGLARTAIEAFMMTPYVVTRYYRAPEVILGMGYKENVDVWSIGCIFGELIRGRVLFPGGDHIDQWTRIIEQLGTPDRSFLERLQPTVRNYVENRPRYQATPFEVLFSDNMFPMTADSSRLTGAQARDLLSRMLVIDPERRISVDDALRHPYVNVWFDEIEVYAPPPLPYDHNMDVEQNVDSWREHIFRELTDYARTHDIYS

Variants of B1 are the subject of the assay. The following applies: with jun_human JUN.
As for K148R, the “effect of a mutation on the interaction” value is listed as “disrupting interaction”.
